According to patent US20100166772A1, “ANTIGEN-BINDING PROTEINS TARGETING S. AUREUS ORF0657n” (priority 2007, published 2010):

Legend:
[1] = tested on: S. aureus; assay: Opsonophagocytosis activity (OPA) assay with HL60_DMF cells; assay type: cell-based; conditions: FIGS. 4 and 5
Text: An opsonophagocytosis activity (OPA) assay was developed to evaluate an antibody's ability to opsonophagocytose. The assay measures the ability of antibodies to bind and fix complement (C′) to the bacterial surface, which results in an increase in the level of phagocytosis of these bacteria by granulocytic effecter cells.
ORF0657n is an iron regulated protein on the surface of S. aureus that appears to be involved in heme/Fe acquisition. […] For this assay the strain is iron starved to increase the expression of ORF0657n. This strain also lacks the ability to produce Protein A. Protein A can bind to the Fc portion of any IgG and the presence of this non-specifically bound antibody could interfere in the OPA reaction.
HL60 cells were exposed to dimethylformamide (DMF) for five to six days to induce the cells to differentiate towards a more granulocytic phenotype. Next, 2% C′-sufficient gnotobiotic pig serum was added to the antibody bound cells. Finally, the antibody and C′ exposed cells were then labeled with the fluorescent chemical 5′, 6′-FAM-SE.
After incubation of opsonized, fluorescently-labeled bacteria and unlabeled HL60_DMF cells, the level of phagocytosis was determined by measuring the percentage of HL60_DMF cells containing labeled bacteria by flow cytometry. […]

[2] = tested on: ORF0657n; conditions: Luminex binding assay
Protocol: Construction of ORF0657n-bead—9.4×10^6 Radix maleimide microspheres (Georgetown, Tex.) were coupled to 750 μg ORF0657n-Se (ORF0657n containing carboxyl terminal cysteine group) at room temperature for 2 hours. Beads were washed 3 times with 1 ml PBS and then quenched with 1 M N-acetyl-L-cysteine (Sigma) for 2 hours at room temperature. Microspheres were washed 3× in PBS. Beads were enumerated and re-suspended at a final concentration of 500 microspheres/μl.
Detection of Competition between CAT ScFvs and CAT mAbs—CAT scFvs were individually competed against the CAT antibodies in the Luminex cLIA assay. ScFvs were diluted 1:4, 1:8, 1:16 and 1:32 in PBS-TBN (0.05% Tween 20, 1% BSA and 0.05% sodium azide) and incubated with 5000 ORF0657n-coupled microspheres in a Multiscreen filter plate (Millipore) for 1 hour, 15 minutes at room temperature. The beads were then washed 3× with PBS with 0.05% Tween 20 (PBS/Tween20). The individual antibodies were diluted in PBS-TBN to a final concentration of 2 μg/ml and added to separate plates. […] Microspheres were re-suspended in PBS/Tween20 and the median fluorescent signal was read using a Bio-Plex luminometer (BioRad). ScFvs were considered competitive if the median fluorescent signal was reduced by at least 30% over the signal detected for non-competitive scFvs for at least two dilutions.

B1: mAb CS-D10: IgG1 antibody, light chain variable region SEQ ID NO: 5, heavy chain variable region SEQ ID NO: 6, lambda (antibody, V domains shown)
VH: QVQLQESGPGLVKPSETLSLTCTVSGGSIRSSSYYWGWFRQTPGKGLEWLGNVFFSGSAYYNPSLKSRVTISIDTSENQSSLKLTSVTAADTAVYYCARPQAYSHDSSGHSPFDLWGRGTMVTVSS
VL: QAVLTQPSSVSGAPGQRVTISCTGGSSNIGAGYDVHWYQQIPGTAPKLLIYGNSNRPSGVPDRFSGSKSGTSASLAITGLQAEDEADYYCQSYDSSLNGPVVFGGGTKVTVLG
modifications: mAb CS-C10 heavy chain variable region; mAb CS-C10 light chain variable region
[1]
  opsonic activity compared to isotype control: higher opsonic activity compared to their IgG1 isotype control
[2]
  mAbs compete for binding to the same epitope: compete for binding to the same epitope
